Here are results for five substances from article PMC5460017.

pKd: −log10 of the molar value.

In assay [1] the target is Mic60solΔMitoΔLBS2 (Chaetomium thermophilum Mic60, residues 208–582) (Chaetomium thermophilum). The experiment in a line: native gel or EMSA; blue native (BN)-PAGE of purified Mic60 constructs. (In EMSA bound probe runs differently from free probe, usually more slowly.)
For assay [2], the target named is Mic60sol (Chaetomium thermophilum Mic60, residues 208–691) (Chaetomium thermophilum). Nature of the assay: ITC; about 450 μM Mic19 construct in the syringe titrated into about 40 μM Mic60 construct in the cell; 10 °C; 20 mM HEPES/NaOH pH 7.5, 150 mM NaCl; untagged proteins. On the technique in general: Isothermal titration calorimetry measures the heat released or taken up as one component is titrated into another.

Assay [3] addresses full-length Mic19 (Chaetomium thermophilum) (Chaetomium thermophilum). The experiment in a line: SEC; gel filtration of purified Mic19 and its C132S/C143S mutant; the dimers were sensitive to reducing agents in SDS–PAGE. (In gel filtration, larger molecules generally elute earlier.)
The target in assay [4] is Mic60sol (Chaetomium thermophilum Mic60, residues 208–691) (Chaetomium thermophilum). Nature of the assay: native gel or EMSA; blue native (BN)-PAGE of purified Mic60 constructs.
Assay [5] shares this target. Nature of the assay: AUC; sedimentation velocity (40,000 r.p.m., 3.5 h) and sedimentation equilibrium (9,000 r.p.m.); 20 mM HEPES/NaOH pH 7.3, 150 mM NaCl, 7 °C; 0.02–2 mg ml^-1 Mic60sol.
Assay [6] addresses Mic60solΔMito (Chaetomium thermophilum Mic60, residues 208–608) (Chaetomium thermophilum). The experiment in a line: native gel or EMSA; blue native (BN)-PAGE of purified Mic60 constructs.

One may read the stoichiometry N as a count of units in the complex or per binding partner. “Mic60solΔMitoΔLBS2 (Chaetomium thermophilum Mic60, residues 208–582) (domain or fragment)” registered a stoichiometry N in assay [1] of 2.

As a reminder, the pKd is the Kd on a negative log10 scale, so that one unit is a factor of ten. In assay [2], “C132S/C143S Mic19 mutant (Chaetomium thermophilum) (natural protein)” gave a pKd of 5.46 and a stoichiometry N of 1.

Take “full-length Mic19 (Chaetomium thermophilum) (natural protein)”: in assay [3], the percent dimers was determined as 30% and the stoichiometry N stood at 2. Besides, in assay [2], the negative-log Kd (pKd) is 6.77 and the stoichiometry N amounted to 0.73.

For “Mic60sol (Chaetomium thermophilum Mic60, residues 208–691) (domain or fragment)”, the stoichiometry N in assay [4] and in assay [5] was 2 throughout.

On to “Mic60solΔMito (Chaetomium thermophilum Mic60, residues 208–608) (domain or fragment)”, for which, in assay [6], the stoichiometry N is 2.
